According to US20250340649A1 (RUTGERS THE STATE UNIVERSITY OF NEW JERSEY, published 2025):

T1: CD32b on B cells (UniProt P31994 43-310)
T1 construct: whole, on cells; also called B cells (CD32b+)
T1 sequence (looked up): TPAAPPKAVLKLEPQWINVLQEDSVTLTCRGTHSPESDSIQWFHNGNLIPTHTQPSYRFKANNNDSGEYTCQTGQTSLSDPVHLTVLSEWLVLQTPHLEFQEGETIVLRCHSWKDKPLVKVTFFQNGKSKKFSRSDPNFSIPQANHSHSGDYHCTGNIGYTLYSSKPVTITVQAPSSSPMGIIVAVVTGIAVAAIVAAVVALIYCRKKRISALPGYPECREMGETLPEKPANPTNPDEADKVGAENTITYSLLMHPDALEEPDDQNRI

T2: biotinylated CD32b (UniProt P31994 46-217, biotinylated)
T2 construct: also called CD32b antigen
T2 sequence (looked up): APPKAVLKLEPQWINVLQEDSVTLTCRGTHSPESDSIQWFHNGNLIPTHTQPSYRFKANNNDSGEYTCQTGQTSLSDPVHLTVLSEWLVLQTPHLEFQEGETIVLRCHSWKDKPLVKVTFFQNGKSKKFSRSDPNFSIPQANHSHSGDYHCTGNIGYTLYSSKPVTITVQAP


How the values were obtained:
[1] = target: T3, CD16a on NK92 (CD16+) cells (human, UniProt P08637 17-254); experiment: flow cytometry, NK92 cells (CD16a+)
T3 construct: whole, on cells; also called NK92 cells (CD16a+); haNK92 cells (CD16a+)

[2] = target: T4, CD16b on neutrophils (human, UniProt O75015 17-200); experiment: flow cytometry, neutrophils (CD16b+)
T4 construct: whole, on cells; also called neutrophils (CD16b+)

[3] = target: T4, CD16b on neutrophils; experiment: flow cytometry, neutrophils (CD16b+); value of the drawn table
[4] = target: T4, CD16b on neutrophils; experiment: flow cytometry, neutrophils (CD16b+); value at the PE-H+ gate inside the histogram
[5] = target: T1, CD32b on B cells; experiment: flow cytometry on B cells (CD32b+)
[6] = target: T4, CD16b on neutrophils; experiment: flow cytometry on neutrophils (CD16b+)
Protocol: For flow cytometry, haNK92 cells (CD16a+) and Neutrophils (CD16b⁺) were used. […] The human Neutrophil cells were purchased from HemaCare and cultured according to the manufacturer's protocol. First, both cell lines were harvested and washed once using DPBS supplemented with 2% FBS (2% DPBS-FBS). For each sample, 0.5×10⁶ cells were stained with antibody on ice for 60 min. In this experiment, 3G8 monoclonal antibody was used as a positive control. This antibody binds to both CD16a and CD16b. Following washing three times, the secondary antibody, anti-Histag antibody FITC labeled, was added. After washing, the samples were run on Cytoflex using FL2 channel.
In this experiment, NK92 cells (CD16a⁺), neutrophils (CD16b⁺), and B cells (CD32b⁺) were used as cell controls. 3G8 (anti-CD16a/b) and AT10 (anti-CD32a/b) mAbs were used as antibody controls.

[7] = target: T2, biotinylated CD32b; experiment: ELISA, biotinylated antigen on streptavidin plate
Protocol: The purified VHHs were subjected to functional analysis using ELISA and flow cytometry. For ELISA, 50 μL of biotinylated CD16a, CD16b-NA1, CD16b-NA2, and CD32b were added to the streptavidin-coated plate and incubated for 45 min at RT. Following washing, the 100 μL of 100 nM purified VHHs were added and incubated at RT for 1 h. Next, 100 μL anti-HA tag HRP conjugated secondary antibody was added. Finally, the substrate was added for color development, and the plate was read using OD of 450 nm.
CD32b and skim milk were also used as antigen controls. 3G8 and eBioCB16, which are anti-CD16a/b mAbs were used as antibody controls. […] CD32b is a receptor that is expressed on B cells and responsible for inhibiting B cell activation. One of the disadvantages of mAb-based therapies is the binding of their Fc region to CD32b leading to the diminished activity of humoral immunity.

[8] = target: T5, Biotinylated Human Fc gamma RIIIA/CD16a (F176) Protein, Avitag, His Tag (Acrobiosystems CDA-H82E8) (human, UniProt P08637 17-208, biotinylated (Avitag)); experiment: BLI (Octet), biotinylated CD16a on streptavidin sensor, VHH 1.875-60 nM
T5 construct: also called biotinylated CD16a; CD16a antigen

[9] = target: T6, Biotinylated Human Fc gamma RIIIB/CD16b (NA1) Protein, His, Avitag (Acrobiosystems CDB-H82E4) (human, UniProt O75015 17-200, biotinylated (Avitag)); experiment: BLI (Octet), biotinylated CD16b-NA1 on streptavidin sensor, VHH 1.875-60 nM
T6 construct: NA1 allele; also called CD16b-NAI
Protocol: An Octet® Streptavidin (SA) Biosensor was soaked for at least 10 min in DPBS supplemented with 0.1% Casein, biotinylated CD16a, CD16b-NA1, CD16b-NA2, and HER2 antigens were loaded onto the streptavidin (SA) biosensor until 1 nm shift was reached. Next, the sensor was dipped into the washing buffer (DPBS+0.05% Tween 20+0.1% Casein) for 2 min to reach the baseline. […] Then, in the dissociation step, sensors were dipped into the washing buffer for 5 min to acquire data (Table 5). The data were then analyzed using Octet Data Analysis HT 11.1 software. The sensorgrams were subtracted from the reference and fitted into 1:1 binding model for data analysis. Finally, the affinity and kinetics were analyzed using “Association and Dissociation”.

[10] = target: T3, CD16a on NK92 (CD16+) cells; experiment: flow cytometry, fixed haNK92 (CD16+) cells, tenfold dilutions, anti-histag-FITC
Protocol: First, CD16a+NK92 was harvested and washed once using Dulbecco's phosphate-buffered saline (DPBS) supplemented with 2% FBS (2% DPBS-FBS). Next, all the cells were fixed using 3.7% paraformaldehyde for 20 min at RT, followed by washing twice. […] Following washing three times, the secondary antibody, anti-Histag antibody FITC labeled, was added. After washing, the samples were run on Cytoflex using FL1 channel.

[11] = target: T5, Biotinylated Human Fc gamma RIIIA/CD16a …; experiment: ELISA, biotinylated CD16a on streptavidin plate, tenfold dilutions 0-1000 nM, anti-cMyc-HRP
Protocol: For ELISA, 50 μL of biotinylated CD16a was added to the streptavidin-coated plate and incubated for 45 min at RT. […] Next, 100 μl anti-cMyc tag HRP conjugated secondary antibody (1:10,000 dilutions) was added. Finally, after washing, the substrate was added for color development, and the plate was read using OD of 450 nm.

T4 sequence (O75015 17-200): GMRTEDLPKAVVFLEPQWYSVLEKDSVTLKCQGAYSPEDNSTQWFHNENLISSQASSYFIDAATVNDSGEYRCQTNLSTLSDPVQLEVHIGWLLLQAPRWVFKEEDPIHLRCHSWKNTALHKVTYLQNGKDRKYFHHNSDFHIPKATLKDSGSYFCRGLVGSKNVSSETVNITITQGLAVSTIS
T3 sequence (P08637 17-254 F176V): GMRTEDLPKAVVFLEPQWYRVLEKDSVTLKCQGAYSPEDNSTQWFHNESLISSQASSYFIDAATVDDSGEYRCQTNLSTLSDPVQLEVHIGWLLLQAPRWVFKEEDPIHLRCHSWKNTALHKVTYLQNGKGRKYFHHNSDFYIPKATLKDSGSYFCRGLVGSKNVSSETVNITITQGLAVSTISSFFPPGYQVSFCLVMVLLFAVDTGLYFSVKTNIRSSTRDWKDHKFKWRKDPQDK
T5 sequence (P08637 17-208 limits assumed): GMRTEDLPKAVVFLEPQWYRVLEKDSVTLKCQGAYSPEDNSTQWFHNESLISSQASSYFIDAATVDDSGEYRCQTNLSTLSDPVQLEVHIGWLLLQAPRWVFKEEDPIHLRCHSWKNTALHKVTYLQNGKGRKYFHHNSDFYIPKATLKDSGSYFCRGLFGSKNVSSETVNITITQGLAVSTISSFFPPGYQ
T6 sequence (O75015 other isoform, or with tags, fused parts or gaps limits assumed): as the sequence (O75015 17-200) above, with S20R, N66D, I90V counted along it

FITC+ [1]	FITC- [1]	MFI [1]	MFI [2]	PE- [2]	PE+ [3]	PE+ [4]	binding result [5]	binding result [6]	binding result [7]	Kd [8]	koff [8]	kon [8]	Kd [9]	koff [9]	kon [9]	EC50 (read off the curve) [10]	EC50 (read off the curve) [11]	Molecule
82.2%	17.8%	88200	18000	38.1%	61.1%	61.9%	–	–	–	–	–	–	–	–	–	–	–	CD16 Monoclonal Antibody (3G8), Functional Grade, eBioscience
–	–	–	–	–	–	–	no binding	no binding	no binding (tested: 100 nM)	1.73 nM	0.000479 s⁻¹	277000 M⁻¹ s⁻¹	119 nM	0.0255 s⁻¹	213000 M⁻¹ s⁻¹	~1 nM	~0.3 nM	C1 anti-CD16a VHH (VHH, also called C1 clone; C1 VHH) VHH: QVQLQESGGGLVQAGGSLRLSCAASGRTFRLYRMGWFRQAPGKEREFVGSIKMIDGSTLYGDPVKGRFTISRDNTKFMAYLQMNSLKPEDTAVYYCASVSRVTGSYDSWGQGTQVTVSSYPYDVPDYAHHHHHHHH
